Experimental findings from article PMC3679265 (Biochimica et biophysica acta, 2013) are described below.

Residue numbers refer to the chain shown, from its start. Numbers in names are those of the source.

Series [1] concerns the molecule itself. In words: cross-linking.
Series [2] deals with the molecule itself. In words: SEC.

B1: human galactose-1-phosphate uridylyltransferase p.F171S (enzyme, UniProt P07902 1-379, looked up)
chain: MSRSGTDPQQRQQASEADAAAATFRANDHQHIRYNPLQDEWVLVSAHRMKRPWQGQVEPQLLKTVPRHDPLNPLCPGAIRANGEVNPQYDSTFLFDNDFPALQPDAPSPGPSDHPLFQAKSARGVCKVMCFHPWSDVTLPLMSVPEIRAVVDAWASVTEELGAQYPWVQISENKGAMMGCSNPHPHCQVWASSFLPDIAQREERSQQAYKSQHGEPLLMEYSRQELLRKERLVLTSEHWLVLVPFWATWPYQTLLLPRRHVRRLPELTPAERDDLASIMKKLLTKYDNLFETSFPYSMGWHGAPTGSEAGANWNHWQLHAHYYPPLLRSATVRKFMVGYEMLAQAQRDLTPEQAAERLRALPEVHYHLGQKDRETATIA
As for B1, the “stoichiometry N” value in series [1] worked out at 2.

B2: human galactose-1-phosphate uridylyltransferase p.D28Y (enzyme, UniProt P07902 1-379, looked up)
chain: B1 chain with D28Y, S171F
Take B2: the “stoichiometry N” value in series [2] was 2.

B3: human galactose-1-phosphate uridylyltransferase p.L74P (enzyme, UniProt P07902 1-379, looked up)
chain: B1 chain with L74P, S171F
As for B3, the “stoichiometry N” value in series [2] is 2.

B4: human galactose-1-phosphate uridylyltransferase p.R333G (enzyme, UniProt P07902 1-379, looked up)
chain: B1 chain with S171F, R333G
Turning to B4, in series [1], the “stoichiometry N” value was found to be 2.

B5: human galactose-1-phosphate uridylyltransferase p.F194L (enzyme, UniProt P07902 1-379, looked up)
chain: B1 chain with S171F, F194L
With B5, in series [1], the “stoichiometry N” value amounted to 2.

Usually stoichiometry N stands for the number of molecules, sites or subunits per partner or assembly.
